This series in a line: protein stability index of a GFP-peptide fusion (GPS, HEK-293T) (PSI 1-6); higher = more stable.
Where [1] appears, read: treatment: DMSO, c terminus: a fixed tail appended.
Where [2] appears, read: treatment: MLN4924 1 uM, 8 h, c terminus: a fixed tail appended.

The results in this text go back to the supplement of paper PMC10567573.

± gives the standard deviation.
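Note: 24-mer peptide tiles fused after GFP, lentivirally expressed, FACS-sorted into six equal bins by GFP/DsRed ratio, decoded by Illumina sequencing, PSI is the read-weighted mean bin number.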

With AAAALFGGKKDKARYIDTHNRVSK [PLK2], the protein stability index under setting [1] worked out at 3.37 ± 0.22 and the protein stability index under setting [2] is 3.14 ± 0.39.
The like results for AACLLQLDGLIQQCGETMKETVNV [GMCL1] were, in that order, 3.14 ± 0.24 and 3.07 ± 0.25.
As to AAFPNLANLSRTQLLHLGLTQGLI [KLHDC10], the protein stability index is, setting by setting: under setting [1], 2.58 ± 0.3; under setting [2], 2.27 ± 0.2.
For AAGSPRSPGPLPGARGLHLPDAGS [ISL2], in that order: 4.6 ± 0.35 and 4.72 ± 0.16.
For AAHAVVLCALPVHVAVEHQLPPAS [SOAT2], the protein stability index runs as follows: under setting [1], 2.16 ± 0.32; under setting [2], 2.52 ± 0.39.
AALNAHSDCCRKLLSSGFEIDTPD [ANKRD44] had a protein stability index under setting [1] of 3.61 ± 0.24 and a protein stability index under setting [2] of 3.59 ± 0.42.
As for AAMLRGQSDVGVAVFENKIYVVGG [KLHL13], the protein stability index worked out at 2.07 ± 0.12 under setting [1] and 2.46 ± 0.55 under setting [2].
In the case of AARALDKNKIPYKGFIPEDLEAFI [FEM1A], the protein stability index is, setting by setting: under setting [1], 2.96 ± 0.29; under setting [2], 3.42 ± 0.41.
Consider AATLLLALLSCCLTVVSFYQVAAL [TNFSF13B], for which the protein stability index runs as follows: under setting [1], 3.24 ± 0.23; under setting [2], 3.31 ± 0.32.
In the case of AAWGARVFSFGKHYWELDVDNSCD [TRIM43], the protein stability index under setting [1] was 2.25 ± 0.44 and the protein stability index under setting [2] came out at 2.28 ± 0.3.
For ACDSKLTFDAITTIRGEVMFFKDR [MMP1], the protein stability index by setting is: under setting [1], 2.45 ± 0.24; under setting [2], 2.83 ± 0.19.
As for ACGGGHLLPYFYIIYMAILLTHRC [DHCR7], the protein stability index is, setting by setting: under setting [1], 2.8 ± 0.18; under setting [2], 3.07 ± 0.19.
As to ACGIVSGKYDSGIPPYSRASLKGY [KCNAB2], the protein stability index runs as follows: under setting [1], 2.35 ± 0.21; under setting [2], 2.2 ± 0.12.
For ACGSSSYVASIVDGGESRSEKGDS [RBMY1A1], in that order: 5.22 ± 0.31 and 5.16 ± 0.35.
As for ACIVVLDRTSHRLHTANLGDSGFL [PPTC7], the protein stability index by setting is: under setting [1], 2.68 ± 0.48; under setting [2], 2.24 ± 0.43.
The like results for ADLENEDIFPELDDILYHVKGMQR [DLC1] were, in that order, 3.7 ± 0.13 and 3.72 ± 0.34.
Consider AEHMKRQRHPRLRPQSAQSSFPPS [AUP1], for which the protein stability index under setting [1] turned out to be 4.13 ± 0.12 and the protein stability index under setting [2] was 4.43 ± 0.25.
Take AEHQFSFMEKRNQWLVSQLSAASP [TRAF3IP2]: the protein stability index is, setting by setting: under setting [1], 3.02 ± 0.39; under setting [2], 3.23 ± 0.37.
Take AEKETELSLQKEQLQLKIIEIEDE [TRIM29]: the protein stability index is, setting by setting: under setting [1], 5.42 ± 0.26; under setting [2], 5.45 ± 0.26.
For AFAEMLRFGDRMFYKDWWNSTSYS [SOAT1], the protein stability index is, setting by setting: under setting [1], 2.52 ± 0.36; under setting [2], 2.58 ± 0.54.
As for AFEPEALGNLVEGLDFHRFYFENL [CAMK2A], the protein stability index is, setting by setting: under setting [1], 2.51 ± 0.18; under setting [2], 2.61 ± 0.3.
For the sequence AFWSLVTLGSSFIPGEHFWLLLLT [SPNS1], the protein stability index reads like this: under setting [1], 2.85 ± 1.5; under setting [2], 2.91 ± 1.1.
As to AGADLKERAKMSSSEVGPFVSKIR [AUH], the protein stability index reads like this: under setting [1], 3.21 ± 0.21; under setting [2], 4.069 ± 0.006.
In the case of AGGDATENFEDVGHSTDAREMSKT [CYB5A], the protein stability index amounted to 5.44 ± 0.28 under setting [1] and 5.3 ± 0.15 under setting [2].
The like results for AGIREAKAKQEKVSAQYLSEIEMA [FLOT1] were, in that order, 4.63 ± 0.33 and 4.75 ± 0.14.
The like results for AGLAPPSLFARAMQVLVTAISPGR [ANKRD9] were, in that order, 2.29 ± 0.1 and 2.29 ± 0.18.
Regarding AGPDSWGSDAEQSTSGQPYPTSDQ [LCOR], the protein stability index by setting is: under setting [1], 5.48 ± 0.23; under setting [2], 5.4 ± 0.13.
On to AIIRTPPKSPATPKQLRLINQPLP [MAP2], for which the protein stability index was 3.13 ± 0.19 under setting [1] and 3.15 ± 0.21 under setting [2].
For AINNLVLQGCSSIGLRLVLEYLYT [KLHL14], the protein stability index turned out to be 3.15 ± 0.55 under setting [1] and 3.04 ± 0.31 under setting [2].
Regarding AKAELPKYKSFNRTAMPYGGYEKA [MYOZ1], the protein stability index by setting is: under setting [1], 3.22 ± 0.23; under setting [2], 3.41 ± 0.24.
For AKEKLESFIKNSDSFDKFEFCEPA [PCMTD1], in that order: 4.06 ± 0.27 and 3.96 ± 0.31.
With AKLAADDFRTKYETELSLRQLVEA [KRT36], the protein stability index was 3.73 ± 0.33 under setting [1] and 3.78 ± 0.061 under setting [2].
The like results for AKRCTVIGGSGFLGQHMVEQLLAR [NSDHL] were, in that order, 2.1 ± 0.2 and 2.21 ± 0.41.
The like results for ALDLAREFLPQGPVAMRVAKLAIN [AUH] were, in that order, 2.89 ± 0.18 and 2.83 ± 0.25.
As for ALERRRRALQEEERAAAQARRELQ [ZBED3], the protein stability index stood at 5.18 ± 0.12 under setting [1] and 4.86 ± 0.19 under setting [2].
With ALLEGEKALWEDKTSLWEEENALW [CCDC70], the protein stability index was 3.41 ± 0.27 under setting [1] and 3.73 ± 0.33 under setting [2].
ALSDAEFEGEGDYEEGMYADWWQE [P3H4] displayed a protein stability index under setting [1] of 4.97 ± 0.23 and a protein stability index under setting [2] of 5.15 ± 0.17.
The like results for ALTGPVVDIVTGHARLSDIWAKTP [DHCR7] were, in that order, 2.63 ± 0.21 and 2.71 ± 0.17.
For AMKITQEPQGLGYWEAWRHHCQGK [SPACA3], in that order: 3.05 ± 0.18 and 3.17 ± 0.29.
The like results for APGYDPETVTVTVGPAEPTLVNFH [CPN1] were, in that order, 3.89 ± 0.32 and 3.99 ± 0.35.
For the sequence APLIQPCHSESGKSRLVQLPPVAV [PCMTD2], the protein stability index runs as follows: under setting [1], 3.13 ± 0.21; under setting [2], 3.29 ± 0.38.
APPQGSCGDELPWTLQRRLTRLRT [PLEKHN1] returned a protein stability index under setting [1] of 3.33 ± 0.26 and a protein stability index under setting [2] of 3.51 ± 0.44.
Consider APPSTRTSHSLPESSVPSTVGCSS [PLEKHN1], for which the protein stability index is 4.94 ± 0.45 under setting [1] and 5.23 ± 0.18 under setting [2].
Consider AQLRLQLEVSQLEGSLQQPKAQSA [SMG5], for which the protein stability index reads like this: under setting [1], 3.66 ± 0.24; under setting [2], 3.7 ± 0.28.
In the case of AQQLEEEGPMEEEEAQPMAAPEGK [EID1], the protein stability index is, setting by setting: under setting [1], 5.68 ± 0.29; under setting [2], 5.53 ± 0.35.
AQVDGAAMFAADPKKPIGGNIIAH [RAD51]: the protein stability index runs as follows: under setting [1], 4.23 ± 0.18; under setting [2], 4.36 ± 0.17.
ARVKPPEGYDVVAVYPNAKVELV [PDLIM4] returned a protein stability index (treatment: DMSO, c terminus: native) of 3.52 ± 0.35 and a protein stability index (treatment: MLN4924 1 uM, 8 h, c terminus: native) of 3.65 ± 0.22.
For the sequence ARYYLVQGLIEDCQLALQQKRETL [KCTD13], the protein stability index reads like this: under setting [1], 2.11 ± 0.19; under setting [2], 2.19 ± 0.24.
The like results for ASDLSSEEGWRLFKIDKEYLLKMA [SAT1] were, in that order, 2.42 ± 0.17 and 2.6 ± 0.33.
Take ASEAFHWDERGRAAAYSPSEALLY [ANKRD9]: the protein stability index was 3.37 ± 0.21 under setting [1] and 3.4 ± 0.4 under setting [2].
Consider ASLGLTQTQVKIWFQNKRSKFKKL [DLX1], for which the protein stability index under setting [1] came out at 2.37 ± 0.19 and the protein stability index under setting [2] was 2.61 ± 0.47.
Turning to ASSLPAEVHSLTLSPPEQAAQPMQ [PLAGL1], the protein stability index by setting is: under setting [1], 5.07 ± 0.12; under setting [2], 4.89 ± 0.26.
The like results for ATECEFVGSLPVIVVGRLKVALEP [LPCAT4] were, in that order, 2.36 ± 0.56 and 2.36 ± 0.59.
ATETQALAQRTQQDSTRTVGERLQ [TEKT4]: the protein stability index under setting [1] was 5.14 ± 0.43 and the protein stability index under setting [2] was 5.43 ± 0.15.
With ATKPSHWCSVAYWEHRTRVGRLYA [SMAD6], the protein stability index by setting is: under setting [1], 2.62 ± 0.55; under setting [2], 1.91 ± 0.17.
Regarding ATVPSNMMSVNGQAKTHTDSSEKE [ACBD3], the protein stability index is, setting by setting: under setting [1], 5.35 ± 0.23; under setting [2], 5.45 ± 0.19.
As for AVETRLSLLNMTFMKYVDSNLCCF [FBXO28], the protein stability index under setting [1] came to 2.99 ± 1.8 and the protein stability index under setting [2] amounted to 2.57 ± 1.3.
AVGDRQDGLREQLQAPVPPDSVPS [PBXIP1]: the protein stability index came out at 5.33 ± 0.37 under setting [1] and 5.37 ± 0.18 under setting [2].
For AVLDCLLDFLPKDVKKEKLSPDIM [TENT5D], the protein stability index by setting is: under setting [1], 2.99 ± 0.65; under setting [2], 2.63 ± 0.52.
As for CASKYGRDWERYTAAVPYRLLPGI [DHCR7], the protein stability index came to 2.05 ± 0.24 under setting [1] and 2.2 ± 0.21 under setting [2].
For CEALINRVSAMRDYRGPDCRYLNF [MIA2], the protein stability index by setting is: under setting [1], 2.3 ± 0.33; under setting [2], 2.53 ± 0.14.
As to CESCVDLLFVRGAGNCPECGTPLR [MNAT1], the protein stability index reads like this: under setting [1], 4.27 ± 0.32; under setting [2], 4.51 ± 0.17.
In the case of CESLTYGLPFILRPTSCWQLDWDE [M1AP], the protein stability index was 2.25 ± 0.15 under setting [1] and 2.04 ± 0.3 under setting [2].
CEVWACNLDEEMKKIRQVIRKYNY [CNOT7]: the protein stability index came out at 2.28 ± 0.19 under setting [1] and 2.23 ± 0.14 under setting [2].
As for CFVKDNPQKSYFIRLYGLQAGRLL [WAS], the protein stability index runs as follows: under setting [1], 2.49 ± 0.58; under setting [2], 2.22 ± 0.45.
For CGFTVAQIITSLVFHLPFYSSNQL [OR10K2], in that order: 3.15 ± 0.51 and 2.95 ± 0.41.
As for CGGYNGEVILGDIWKLNLQTFQWV [KLHDC10], the protein stability index by setting is: under setting [1], 2.44 ± 0.85; under setting [2], 2.11 ± 0.71.
The like results for CNDGRIVIWDFLTRGIAKIISAHI [RBBP5] were, in that order, 3.03 ± 0.42 and 2.66 ± 0.41.
Turning to CPCCFGRDCLVLNQGYLSEAGASL [PI4K2A], the protein stability index came to 2.44 ± 0.2 under setting [1] and 2.62 ± 0.49 under setting [2].
As to CQDQNVPVENFFVKCNGALINTSD [SDE2], the protein stability index was found to be 3.3 ± 0.23 under setting [1] and 3.27 ± 0.47 under setting [2].
Turning to CQFRPPVRVNDGGGSHPSRPNSRH [VDR], the protein stability index by setting is: under setting [1], 4.55 ± 0.34; under setting [2], 4.77 ± 0.076.
As for CQGQPQGKAVVSHSKGHKSSRQEK [ELOA2], the protein stability index runs as follows: under setting [1], 5.38 ± 0.22; under setting [2], 5.37 ± 0.1.
